The target of this data set is FXR1-GST (Homo sapiens, UniProt P51114 1-621). In words: EMSA.
FXR1-GST, sequence (P51114 whole entry): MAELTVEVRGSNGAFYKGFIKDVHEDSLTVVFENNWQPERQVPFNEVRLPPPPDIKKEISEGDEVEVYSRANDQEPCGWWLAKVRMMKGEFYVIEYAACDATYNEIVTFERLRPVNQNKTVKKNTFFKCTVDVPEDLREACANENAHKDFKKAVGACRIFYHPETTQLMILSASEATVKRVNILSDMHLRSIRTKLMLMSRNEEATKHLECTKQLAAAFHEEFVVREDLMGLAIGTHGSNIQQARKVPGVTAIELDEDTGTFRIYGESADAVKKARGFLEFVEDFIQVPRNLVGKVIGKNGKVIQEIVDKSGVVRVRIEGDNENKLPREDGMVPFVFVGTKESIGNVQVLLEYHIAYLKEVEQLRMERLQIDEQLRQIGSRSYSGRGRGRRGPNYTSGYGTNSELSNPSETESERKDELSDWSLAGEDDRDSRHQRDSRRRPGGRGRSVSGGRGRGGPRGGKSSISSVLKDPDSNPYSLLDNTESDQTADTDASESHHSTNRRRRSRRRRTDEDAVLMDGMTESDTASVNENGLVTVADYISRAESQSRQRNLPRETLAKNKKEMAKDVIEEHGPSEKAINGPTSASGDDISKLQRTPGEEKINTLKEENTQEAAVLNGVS

Take GAAAGAUUUAGCCAU (ssRNA) [cMYC 3'UTR-ARE1]: the binding result is “binds”.

Turning to UUUGUAUUUAAGAAU (ssRNA) [cMYC 3'UTR-ARE2], the binding result was “binds”.

As for UUGUGAUUUAUUUUG (ssRNA) [cMYC 3'UTR-ARE5], the binding result is “binds”.

Regarding UUUUUAUUUAAGUAC (ssRNA) [cMYC 3'UTR-ARE4], the binding result is “binds”.

Values taken from doi:10.1101/2020.07.19.210252.
